According to patent US20110294740A1 (RESEARCH FOUNDATION FOR THE STATE UNIVERSITY OF NEW YORK, published 2011):

B1: myelin basic protein (purified MBP) (other, human, UniProt P02686-5 2-171, looked up)
chain: ASQKRPSQRHGSKYLATASTMDHARHGFLPRHRDTGILDSIGRFFGGDRGAPKRGSGKDSHHPARTAHYGSLPQKSHGRTQDENPVVHFFKNIVTPRTPPPSQGKGRGLSLSRFSWGAEGQRPGFGYGGRASDYKSAHKGFKGVDAQGTLSKIFKLGGRDSRSGSPMARR
notes: also called intact MBP

How the values were obtained:
[1] = biological target: B1; test: dot blot: peptide immobilised on nitrocellulose, incubated with MBP, detected with mAb 384
Method: Dot Blot Analysis. […] Insulin (Sigma) was resuspended to 2 mg/ml in water at pH 2.0 and diluted to 2 μg/ml in Tris-buffered saline. 1 μg of each was immobilized onto Hybond ECL nitrocellulose membranes using a Bio-Dot microfiltration apparatus (Bio-Rad) according to the manufacturer's instructions. Each membrane was removed from the apparatus following immobilization and blocked overnight in 5% BSA and PBS at 4° C. […] The membrane was washed 3×10 min with 5% BSA, PBS, and 0.05% Tween 20 and incubated with mAb 384 (1:2000 dilution) for 1 h at room temperature. The membrane was next washed […] with PBS and 0.05% Tween 20 and incubated with horseradish peroxidase-conjugated sheep antimouse IgG (1:2000 dilution) for 1 h at room temperature. Detection and quantitation were performed as described above.

[2] = biological target: T1, wild-type Aβ42 peptide (UniProt P05067 672-713); test: SPR, Aβ peptide immobilised, MBP as analyte
T1 construct: domain: Aβ42; Free in co-immunoprecipitation; also called Aβ42WT
T1 sequence (P05067 672-713 limits assumed): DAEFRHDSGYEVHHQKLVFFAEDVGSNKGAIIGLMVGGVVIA

| Binder | binding result [1] | Kd [2] [nM] |
| --- | --- | --- |
| RGRKQCKTHPHFVIPYRCLV [APP 100-119] | no binding (tested: 1 g/ml MBP (as printed in paragraph 99)) | – |
| PEERHLSKMQQNGYENPTYK (also called AβPP-(744-763)) [APP 744-763] | no binding (tested: 1 g/ml MBP (as printed in paragraph 99)) | – |
| B1 | – | 43 |
